Source: article PMC3124540, “A Minimum of Three Motifs Is Essential for Optimal Binding of Pseudomurein Cell Wall-Binding Domain of Methanothermobacter thermautotrophicus” (PLoS ONE, 2011)

Molecular target: the molecule itself
Test: SEC; Superdex 200 10/300 GL, room temperature, 50 mM NaH2PO4, 150 mM NaCl, pH 7.0; calibrated with globular proteins

B1: three pseudomurein binding motifs with C-terminal ten-Histidine tag (3P-His10), the PMB domain of MTH719 (domain or fragment, Methanothermobacter thermautotrophicus)
chain: MGGGFAASVKISVRQLTDAASWVRAYYGRYGRLPGKVTISGHGYSMAQFLYLLCRATVNINAGNVAPISVKSVASAPASGGWYRHGRLYRSSYVRVAKNILSFIDSRGRAPNYAITGLGRIPFQRLVYMYSKIIKFYGTNKRLPNYVTI
notes: short N-terminal peptide region resulting from the cloning procedure (LIC); also called PMB domain 3P-His10; 3P-His10 PMB domain; source: E. coli Rosetta gami 2 (pBADcLIC, arabinose induced), purified (Ni-NTA); not shown: His10, C-terminal, kept
Question: Does B1 bind?
Answer: binds
